Drawing on US20170042969A1, this text covers decrease in activity of purified ODC (released CO2) after 1 h with 100 µM peptide for one substance.

For the assay, the target named is ornithine decarboxylase (ODC) (UniProt P11926). Description: cell-based or functional assay.
ornithine decarboxylase (ODC), sequence (P11926 whole entry): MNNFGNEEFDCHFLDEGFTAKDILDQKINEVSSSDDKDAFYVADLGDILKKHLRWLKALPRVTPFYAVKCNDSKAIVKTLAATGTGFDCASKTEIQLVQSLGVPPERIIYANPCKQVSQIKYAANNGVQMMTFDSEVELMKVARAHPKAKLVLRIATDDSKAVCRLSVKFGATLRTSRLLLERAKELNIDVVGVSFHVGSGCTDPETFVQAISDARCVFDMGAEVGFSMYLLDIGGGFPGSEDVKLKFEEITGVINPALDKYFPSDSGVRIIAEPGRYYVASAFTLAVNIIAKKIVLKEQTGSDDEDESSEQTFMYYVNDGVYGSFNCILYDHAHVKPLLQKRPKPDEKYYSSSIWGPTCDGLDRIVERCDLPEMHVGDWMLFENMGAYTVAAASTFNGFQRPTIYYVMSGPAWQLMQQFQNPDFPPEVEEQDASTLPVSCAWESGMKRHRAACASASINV

Turning to “QEP (glutamine-glutamic acid-proline tripeptide)”, the decrease in activity of purified ODC (released CO2) after 1 h with 100 µM peptide worked out at 40%.
